Assay results: PMC2655680 (Nucleic Acids Research, 2009)
Non-standard residues stand in square brackets, D forms with d. No end group written: not given here. pT = C[C@@H](OP(=O)(O)O)[C@H](N)C(=O)O; pS = N[C@@H](COP(=O)(O)O)C(=O)O

Target: full-length human PNK (human, UniProt Q96T60 1-521)
Assay: ITC

| stoichiometry N | Binder |
| --- | --- |
| 0.49 | YAG[pS][pT]DEN[pT]D[pS]E [XRCC1 peptide YAGpSpTDENpTDpSE, phosphorylated on Ser518, Thr519, Thr523 and Ser525] |
| 0.61 | YAG[pS][pT]DENTDSE [XRCC1 peptide YAGpSpTDENTDSE, phosphorylated on Ser518 and Thr519] |
